Experimental data reported in patent publication US20240181007A1, “COMPOSITIONS AND METHODS FOR TREATING PULMONARY HYPERTENSION” (Acceleron Pharma Inc., priority 2021, published 2024).
Values belong to the molecule of their own block, whether it stands above or below them.

How the values were obtained:
[1] = Muscle-building activity in vivo; settings: material from CHO, HEK293 and COS cells; variability in potency was observed
BMP9 = biological target: T1, BMP9 (UniProt Q9UK05 320-429); experiment: SPR (Biacore), fusion protein captured by anti-Fc antibody, ligand injected, 37 C
T1 sequence (looked up): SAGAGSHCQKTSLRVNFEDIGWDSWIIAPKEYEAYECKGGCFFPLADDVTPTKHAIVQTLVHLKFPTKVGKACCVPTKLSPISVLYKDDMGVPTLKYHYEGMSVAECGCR
Experimental: (§1) A Biacore™-based binding assay was used to compare the ligand binding kinetics of an ActRIIB-Fc:ActRIIB(L79E)-Fc heterodimer with those of unmodified ActRIIB-Fc homodimer. Fusion proteins were captured onto the system using an anti-Fc antibody. Ligands were then injected and allowed to flow over the captured receptor protein at 37° C. Results are summarized in the table below, in which ligand off-rates (kd) most indicative of effective ligand traps are denoted in bold.

GDF3 = biological target: T2, GDF3 (UniProt Q9NR23 251-364); experiment: as above
T2 sequence (looked up): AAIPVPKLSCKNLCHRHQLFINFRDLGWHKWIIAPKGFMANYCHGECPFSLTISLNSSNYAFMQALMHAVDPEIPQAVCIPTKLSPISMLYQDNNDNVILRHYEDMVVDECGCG
Experimental: as §1

activin B = biological target: T3, activin B (UniProt P09529 293-407); experiment: as above
T3 sequence (looked up): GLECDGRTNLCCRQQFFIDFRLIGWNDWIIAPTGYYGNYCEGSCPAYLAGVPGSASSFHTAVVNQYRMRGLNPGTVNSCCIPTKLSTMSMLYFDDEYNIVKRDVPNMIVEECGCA
Experimental: as §1

GDF8 = biological target: T4, GDF8 (UniProt O14793 267-375); experiment: as above
T4 construct: also called Growth and differentiation factor-8; myostatin
T4 sequence (looked up): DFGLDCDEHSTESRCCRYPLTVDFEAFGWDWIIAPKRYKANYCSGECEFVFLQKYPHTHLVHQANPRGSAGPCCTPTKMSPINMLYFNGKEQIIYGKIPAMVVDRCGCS
Experimental: as §1

BMP10 [2] = biological target: T5, BMP10 (UniProt O95393 317-424); experiment: as above
T5 sequence (looked up): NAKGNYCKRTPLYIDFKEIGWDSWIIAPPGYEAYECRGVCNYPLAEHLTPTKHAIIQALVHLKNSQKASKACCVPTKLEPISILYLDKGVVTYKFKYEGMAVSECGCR
Experimental: as §1

BMP6 = biological target: T6, BMP6 (UniProt P22004 382-513, limits assumed); experiment: as above
T6 sequence (looked up): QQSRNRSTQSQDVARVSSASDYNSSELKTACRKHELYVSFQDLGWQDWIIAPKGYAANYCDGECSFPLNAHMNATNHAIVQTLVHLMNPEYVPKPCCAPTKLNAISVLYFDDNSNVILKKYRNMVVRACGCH
Experimental: as §1

GDF11 = biological target: T7, GDF11 (UniProt O95390 299-407); experiment: as above
T7 construct: also called Growth and differentiation factor-11; BMP11
T7 sequence (looked up): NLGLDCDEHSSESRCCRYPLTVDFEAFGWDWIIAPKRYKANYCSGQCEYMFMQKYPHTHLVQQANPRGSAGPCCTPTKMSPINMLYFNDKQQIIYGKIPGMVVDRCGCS
Experimental: as §1

activin A [3] = biological target: T8, activin A (UniProt P08476 311-426); experiment: as above
T8 construct: Soluble ligand injected in SPR or added in the reporter assay
T8 sequence (looked up): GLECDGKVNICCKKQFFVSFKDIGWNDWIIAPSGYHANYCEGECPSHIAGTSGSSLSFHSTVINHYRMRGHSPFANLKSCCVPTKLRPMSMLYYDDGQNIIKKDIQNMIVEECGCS
Experimental: as §1

BMP10 [4] = biological target: T5, BMP10; experiment: SPR (Biacore), 37 C
Experimental: as §1

activin A [5] = biological target: T8, activin A; experiment: SPR (Biacore), 37 C
Experimental: as §1

Molecule: ActRIIB-G1Fc: extracellular domain of human ActRIIB fused to a human G1Fc domain with a three-glycine linker; SEQ ID NO: 5
muscle-building activity in vivo [1]: muscle-building activity in vivo

Kd (BMP9): > 2.8 nM | Kd (GDF3): 10 nM | koff (GDF3): 0.0059 s⁻¹ | kon (GDF3): 580000 M⁻¹ s⁻¹ | Kd (activin B): 0.025 nM | koff (activin B): 0.00021 s⁻¹ | kon (activin B): 8.3e+06 M⁻¹ s⁻¹ | Kd (GDF8): 0.15 nM | koff (GDF8): 0.0005 s⁻¹ | kon (GDF8): 3.4e+06 M⁻¹ s⁻¹ | Kd (BMP10 [2]): 0.042 nM | koff (BMP10 [2]): 0.002 s⁻¹ | kon (BMP10 [2]): 4.8e+07 M⁻¹ s⁻¹ | Kd (BMP6): 0.056 nM | koff (BMP6): 0.018 s⁻¹ | kon (BMP6): 3.3e+08 M⁻¹ s⁻¹ | Kd (GDF11): 0.009 nM | koff (GDF11): 0.00036 s⁻¹ | kon (GDF11): 4e+07 M⁻¹ s⁻¹ | Kd (activin A [3]): 0.17 nM | koff (activin A [3]): 0.0015 s⁻¹ | kon (activin A [3]): 8.8e+06 M⁻¹ s⁻¹ | fold faster off-rate compared to ActRIIB-Fc homodimer (BMP10 [4]): ~10 fold | fold faster off-rate compared to ActRIIB-Fc homodimer (activin A [5]): ~10 fold
B1: ActRIIB-Fc:ActRIIB(L79E)-Fc heterodimer (Fc fusion)
chain 1: GRGEAETRECIYYNANWELERTNQSGLERCEGEQDKRLHCYASWRNSSGTIELVKKGCWEDDFNCYDRQECVATEENPQVYFCCCEGNFCNERFTHLPEAGGPEVTYEPPPTAPTGGGTHTCPPCPAPELLGGPSVFLFPPKPKDTLMISRTPEVTCVVVDVSHEDPEVKFNWYVDGVEVHNAKTKPREEQYNSTYRVVSVLTVLHQDWLNGKEYKCKVSNKALPAPIEKTISKAKGQPREPQVYTLPPSREEMTKNQVSLTCLVKGFYPSDIAVEWESNGQPENNYDTTPPVLDSDGSFFLYSDLTVDKSRWQQGNVFSCSVMHEALHNHYTQKSLSLSPG
chain 2: GRGEAETRECIYYNANWELERTNQSGLERCEGEQDKRLHCYASWRNSSGTIELVKKGCWLDDFNCYDRQECVATEENPQVYFCCCEGNFCNERFTHLPEAGGPEVTYEPPPTAPTGGGTHTCPPCPAPELLGGPSVFLFPPKPKDTLMISRTPEVTCVVVDVSHEDPEVKFNWYVDGVEVHNAKTKPREEQYNSTYRVVSVLTVLHQDWLNGKEYKCKVSNKALPAPIEKTISKAKGQPREPQVYTLPPSRKEMTKNQVSLTCLVKGFYPSDIAVEWESNGQPENNYKTTPPVLKSDGSFFLYSKLTVDKSRWQQGNVFSCSVMHEALHNHYTQKSLSLSPGK
notes: The ActRIIB extracellular domains and linkers are the same in both pairs; also called ActRIIB-Fc:ActRIIB(L79E)-Fc heteromer
